Measurements taken from doi:10.1101/2023.09.11.557127.

Molecular target: human wild-type 5-HT1AR with C-terminal ARMS2-PK2 (5-HT1AR-ARMS2-PK2) (human) (UniProt P08908)
Test: split reporter

UniProt P08908, sequence (P08908 whole entry): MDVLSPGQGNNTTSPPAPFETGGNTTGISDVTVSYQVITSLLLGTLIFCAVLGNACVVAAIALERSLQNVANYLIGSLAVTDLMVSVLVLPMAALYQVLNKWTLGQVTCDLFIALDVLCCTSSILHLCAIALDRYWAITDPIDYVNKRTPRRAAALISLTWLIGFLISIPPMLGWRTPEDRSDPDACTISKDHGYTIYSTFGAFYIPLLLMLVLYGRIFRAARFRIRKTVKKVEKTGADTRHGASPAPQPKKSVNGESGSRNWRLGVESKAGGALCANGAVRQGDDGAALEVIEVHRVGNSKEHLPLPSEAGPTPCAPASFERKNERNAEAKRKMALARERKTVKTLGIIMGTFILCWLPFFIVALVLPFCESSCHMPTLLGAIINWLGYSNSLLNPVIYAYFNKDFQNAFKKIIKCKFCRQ

β-arrestin-2-EA (from UniProt P32121 1-409) (natural protein)
Emax of recruitment with ST171, elevated GRK2 (% of serotonin): 15% | Emax of recruitment with ST171, native GRK2 (% of serotonin): < 5% | Emax of recruitment with befiradol, elevated GRK2 (% of serotonin): 96% | Emax of recruitment with befiradol, native GRK2 (% of serotonin): 67%
